Reference: the supplement of paper PMC12783771
± gives the standard deviation of the averaged measurements.

B1: library; a variant is named by its letters at X, in order (parent)
chain: MNIQIGELAKRTACPVVTIRFYEQEGLLPPPGRSRGNFRLYGEEHVERLQFIRHCRSLDMPLSDVRTLLSYRKRPDQDCGEVXMLLDEHIRQVESRIGALLELKHHLVELREACSGARPAQSCGILQXLSXCVCXTRGTTAHXSD

Experiments:
[1] = variants of: B1; test: sfGFP reporter fluorescence (15 h) (µM FITC); higher = higher leak; conditions: library round: Round 2; ligand: none
Experimental: (§1)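 Cell-free biosensing: 1 µL Echo-assembled CFE reactions with linear PbrR variant templates (5 nM) and pPbrR-sfGFP reporter, with 1 µM Pb, 30 µM Zn or no ligand; endpoint sfGFP fluorescence after 15 h at 30 °C calibrated as µM FITC. Round 2 ML-predicted PbrR mutants; up to 3 biological replicates.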

[2] = variants of: B1; test: sfGFP reporter fluorescence (15 h) (µM FITC); higher = stronger transcriptional activation; conditions: library round: Round 2
Experimental: as §1

| Variant | sfGFP reporter fluorescence [1] | sfGFP reporter fluorescence ([2]; ligand: 1 µM Pb) | sfGFP reporter fluorescence ([2]; ligand: 30 µM Zn) |
| --- | --- | --- | --- |
| MNIQIGELAKRTACPVVTIRFYEQEGLLPPPGRSRGNFRLYGEEHVERLQFIRHCRSLDLPLSKVRTLLSYRKRPDQDCGEVNMLLDEHIRQVESRIGALLELKHHLVELREACSGARPAQSCGILQGLSACVCDTRGTTAHPSD [NGADP M60L D64K] | 1.59 ± 0.28 | 2.6 ± 0.28 | 3.98 ± 0.16 |
| MNIQIGELAKRTACPVVTIRFYEQEGLLPPPGRSRGNFRLYGEEHVERLQFIRHCRSLDMPLSDVRTLLSYRKRPDQDCGEVNMLLDEHIRQVESRIGALLELKHHLVELREACSGARPAQSCGILQGVSACVCDTRGTTAHLSD [NGADL L129V] | 0.0491 ± 0.0012 | 0.0459 ± 0.00051 | 0.0502 ± 0.0022 |
| MNIQIGELAKRTACPVVTIRFYEQEGLLPPPGRSRGNFRLYGEEHVERLQFIRHCRSLDMPLSDVRTLLSYRKRPDQDCGEVNMLLDEHIRQVESRIGALLELKHHCVELREACSGARPAQSCGILQGLSACVCDTRGTTAHYSD [NGADY L107C] | 1.36 ± 0.23 | 2.4 ± 0.18 | 3.25 ± 0.18 |
| MNIQIGELAKRTACPVVTIRFYEQEGLLPPPGRSRGNFRLYGEEHVERLQFIRHCRSLDMPLSDVRTLLSYRKRPDQDCGEVNMLLDEHIRQVESRIGALLELKHHLVELREACSGARPAQSCGILQGLSACVVDTRGTTAHTSD [NGADT C134V] | 0.103 ± 0.013 | 0.155 ± 0.03 | 2.64 ± 0.21 |
| MNIQIGELAKRTACPVVTIRFYEQEGLLPPPGRSRGNFRLYGEEHVERLQFIRHCRSLDMPLSDVRTLLSYRKRPDQDCGEVNMLLDEHIRQVESRIGALLELKHHLVELREACSGARPAQSCGIIQGLSACVCDTRGTTAHWSD [NGADW L126I] | 0.0633 ± 0.0051 | 0.0592 ± 0.0043 | 0.317 ± 0.024 |
| MNIQIGELAKRTACPVVTIRFYEQEGLLPPPGRSRGNFRLYGEEHVERLQFIRHCRSLDMPLSDVRTLLSYRKRPDQDCGEVNMLLDEHIRQVESRIGALLELKHHVVELREACSGARPAQSCGILQGLSACVCKTRGTTAHPSD [NGAKP L107V] | 0.173 ± 0.011 | 0.513 ± 0.055 | 3.38 ± 0.24 |
| MNIQIGELAKRTACPVVTIRFYEQEGLLPPPGRSRGNFRLYGEEHVERLQFIRHCRSLDMPLSDVRTLLSYRKRPDQDCGEVTMLLDEHIRQVESRIGALLELKHHLVELREACSGARPAQSCGILQGLSACVCATRGTTAHPSD [TGAAP] | 0.0444 ± 0.0012 | 0.0747 ± 0.0046 | 0.359 ± 0.0081 |
| MNIQIGELAKRTACPVVTIRFYEQEGLLPPPGRSRGNFRLYGEEHVERLQFIRHCRSLDMPLSDVRTLLSYRKRPDQDCGEVNMLLDEHIRQVESRIGALLELKHHLVELREACSGARPAQSCGILQGLSACPVDTRGTTAHPSD [NGADP V133P C134V] | 0.0817 ± 0.0086 | 0.0967 ± 0.019 | 2.1 ± 0.36 |
| MNIQIGELAKRTACPVVTIRFYEQEGLLPPPGRSRGNFRLYGEEHVERLQFIRHCRSLDMPLSDVRTLLSYRKRPDQDCGEVNMLLDEHIRQVESRIGALLELKHHCVELREACSGARPAQSCGILQGLSACVCATRGTTAHPSD [NGAAP L107C] | 1.86 ± 0.29 | 2.29 ± 0.21 | 3.05 ± 0.55 |
| MNIQIGELAKRTACPVVTIRFYEQEGLLPPPGRSRGNFRLYGEEHVERLQFIRHCRSLDMPLSDVRTLLSYRKRPDQDCGEVMMLLDEHIRQVESRIGALLELKHHLVELREACSGARPAQSCGILQGLSACVCATRGTTAHPSD [MGAAP] | 0.0477 ± 0.0018 | 0.0933 ± 0.0042 | 0.0535 ± 0.0035 |
| MNIQIGELAKRTACPVVTIRFYEQEGLLPPPGRSRGNFRLYGEEHVERLQFIRHCRSLDMPLSDVRTLLSYRKRPDQDCGEVNMLLDEHIRQVESRIGALLELKHHLVELREACSGARPAQSCGILQGLSACVCATRGTTAHSSD [NGAAS] | 0.0633 ± 0.001 | 0.107 ± 0.011 | 1.08 ± 0.1 |
| MNIQIGELAKRTACPVVTIRFYEQEGLLPPPGRSRGNFRLYGEEHVERLQFIRHCRSLDMPLSDVRTLLSYRKRPDQDCGEVTMLLDEHIRQVESRIGALLELKHHLLELREACSGARPAQSCGILQGLSACVCDTRGTTAHPSD [TGADP V108L] | 0.0451 ± 0.00078 | 0.0942 ± 0.0052 | 0.321 ± 0.0054 |
| MNIQIGELAKRTACPVVTIRFYEQEGLLPPPGRSRGNFRLYGEEHVERLQFIRHCRSLDMPLSDVRTLLSYRKRPDQDCGEVNMLLDEHIRQVESRIGALLELKHHLVELREACSGARPAQSCGILQGLSACACDTRGTTAHYSD [NGADY V133A] | 0.0753 ± 0.0056 | 0.124 ± 0.0081 | 1.15 ± 0.1 |
| MNIQIGELAKRTACPVVTIRFYEQEGLLPPPGRSRGNFRLYGEEHVERLQFIRHCRSLDLNLSKVRTLLSYRKRPDQDCGEVNMLLDEHIRQVESRIGALLELKHHLVELREACSGARPAQSCGILQGLSACVCDTRGTTAHPSD [NGADP M60L P61N D64K] | 0.804 ± 0.17 | 1.38 ± 0.2 | 2.82 ± 0.43 |
